From the DeepSol protein solubility set

Assay: soluble on expression in E. coli; label from the status in PepcDB or PDB records

Sequence | soluble on expression in E. coli
MGSDKIHHHHHHMVDSLQKPELEELRPGIKAPAKETILTPRFYTTDFEAMAKMDLSPNEDELRAILEEFRADYNRKHFVRTPEFDGSAADMDPETKKVFVEFLEQSCTSEFSGFLLYKELSRRIKNRNPLLAECFELMARDEARHAGFLNKSMSDFDLQLDLGFLTANKKYTYFKPAYIFYATYLSEKIGYWRYITIFRHLEQHPEYRIYPIFKFFENWCQDENRHGDFFDALMKAQPSTVRGFVAKLWCRFFLLAVFATMYIRDVQRKEFYEALGLDAREYDRHVIAKTNETSARVFPVVLDVDHPKFYDRLETCIANNNQLAAIEATSAPKPVKVLRKLPYYLSNGLQLLKLYLVKPLESDVYQPAVR | not soluble
MAHHHHHHSLSQVILDLQLACENHAGLPDEAQFQRWLDGVIPQFQEEAEVTIRLVDEAESHDLNLTYRGKDKPTNVLSFPFEAPPGIEMPLLGDLIICRQVVEQEAQEQSKPLEAHWAHMVVHGSLHLLGYDHIDDDEAEEMESLETEIMLAMGYEDPYIAEKIAE | soluble
MIDLDSLEHIGVLGKPHGVQGECNARLTADLSTLFEEEERLFLFFELDALPVPFRLIGYREKTDDITLLRFAGIESKEEMEQYTGVSLFMERRYFDTDSIEFTWEHFIGFTVFDREGCFVGTIDDVDESTLNVLLSITTPEGKELLLPVAEDLLEEIDVPNRKLTMIIPDGLLQLLEHHHHHH | soluble
MGSDKIHHHHHHMKPALKSTPALRITLVCNTAWAIYTYRQGLIRMLVGRGVDVTVLAPRDRTFELLVAMGCRCIELPVASKGTSPRDDLRTLYALYRQYRSIRPHVVFHYTIKPNIYGSIAARLAGVQSVAVTTGLGYVFIQQSRAAQVAKKLYRFAFRFPREIWFLNRDDQAAFVEQNLLVHPERARLLHGEGVDLEQFAFTPLPERADYRFVLIGRLLWDKGVGEYVEAARRLRERYPHARFQLLGPVGVDNPSAITREEVAAWEREGIIEYLGEAHDVRPFIAEADCVVLPSYREGVPRTLMEASAMGRPIVTTDVPGCREVVADGVNGLLCEARNAASLAATLARMLDMSGAERRALAERGRKKVAEEFDERVVVEMYKDLVQKMTGVLL | not soluble
MAVNLNPPQAGQLPAVAGVELLVAEAGIKTPGRKDVLVVKLDKGNTVAGVFTRNRFCAAPVQLCQEHLAAGVQIRALVVNTGNANAGTGFDGRARALSVCRAVAERDQLQTEQVLPFSTGVILEPLPADKIVAALPALRQADWAEAAEAIMTTDTLAKAASRRLDIGGKAVTVTGIAKGSGMIHPNMATMLGFVATDAAVTRPMLNQLVREVADQSFNSITVDGDTSTNDSFILISTGQSGAELIDSAEQPAYQQLKQALLEVAIELAQAIVRDGEGATKFITVDVNGGRSVAECKDVAYAIARSPLVKTAFFASDPNLGRLLAAIGYAGVADLDVDRLSLYLDDVLVACEGGRNPAYKEAQGQAVMNQSEITVRVELGRGSASARVWTCDFSYEYVRINADYRSLEHHHHHH | not soluble
MVPAAQQTATAPDAALTFPEGFLWGSATASYQIEGAAAEDGRTPSIWDTYARTPGRVRNGDTGDVATDHYHRWREDVALMAELGLGAYRFSLAWPRIQPTGRGPALQKGLDFYRRLADELLAKGIQPVATLYHWDLPQELENAGGWPERATAERFAEYAAIAADALGDRVKTWTTLNEPWCSAFLGYGSGVHAPGRTDPVAALRAAHHLNLGHGLAVQALRDRLPADAQCSVTLNIHHVRPLTDSDADADAVRRIDALANRVFTGPMLQGAYPEDLVKDTAGLTDWSFVRDGDLRLAHQKLDFLGVNYYSPTLVSEADGSGTHNSDGHGRSAHSPWPGADRVAFHQPPGETTAMGWAVDPSGLYELLRRLSSDFPALPLVITENGAAFHDYADPEGNVNDPERIAYVRDHLAAVHRAIKDGSDVRGYFLWSLLDNFEWAHGYSKRFGAVYVDYPTGTRIPKASARWYAEVARTGVLPTA | soluble
SNAMKADILLVSHSKMITDGIKEMIEQMNASEEITIHSLGGTSDGSLGSDPMKIIDTINEADSDREFLIFADLGSAVLSSELAFDMLEEDQQKHYHLVDAPLVEGAFASAITAGVSDDLTQILAEAQNAGKKGWN | soluble
SLGRIKAQAFGFDQTFQSYRKDDFVMAFFKDPNVIPNLKLLSDSSGQWIILGTEVKKIEAINVPCTQLSMSFFHRLYDEDIVRDSGHIVKCLDSFCDPFLISDELRRVLLVEDSEKYEIFSQPDREEFLFCLFKHLCLGGALCQYEDVISPYLETTKLIYKDLVSVRKNPQTKKIQITSSVFKVSAYDSAGMCYPSAKNHEQTFSYFIVDPIRRHLHVLYHCYGVGDMS | soluble
MSNVHPYTIFATMPHKSTAKDILIMSYDLSKRLVIGLASSALFDLSESDNIFRMEGAETYRQYQREKQNHPLKKALSFHLLKNFCQSMK | not soluble
